# From doi:10.1101/2020.02.05.923433 (bioRxiv, 2020)
# T1: purified RASSF1 RA domain (human, UniProt Q9NS23-2 124-288)
# T1 sequence: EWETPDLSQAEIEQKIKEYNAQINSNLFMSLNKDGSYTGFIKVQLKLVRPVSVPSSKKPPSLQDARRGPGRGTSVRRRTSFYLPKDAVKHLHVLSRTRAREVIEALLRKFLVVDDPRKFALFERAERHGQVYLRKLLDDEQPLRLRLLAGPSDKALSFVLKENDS
# Target: T1, purified RASSF1 RA domain
# Experiment: ITC
binder,measurement,value
GEM-GDP (purified GEM used for ITC) (domain or fragment) STDSVISSESGNTYYRVVLIGEQGVGKSTLANIFAGVHDSMDSDCEVLGEDTYERTLMVDGESATIILLDMWENKGENEWLHDHCMQVGDAYLIVYSITDRASFEKASELRIQLRRARQTEDIPIILVGNKSDLVRCREVSV,Kd,9.6 µM
